According to patent US12077763B2, “RNA-based control of powdery mildew” (Greenlight Biosciences, Inc., priority 2021, dated 2024):

Test system: E. necator
Assay: Leaf disc assay, dry inoculum (settling tower), decrease in disease severity / hyphal growth (Example 2)
Conditions: decrease in disease severity (hyphal growth) relative to untreated control, value ± SE; for % decrease =/− SE TP1: time point 1 (untreated control hyphal growth ≥50%); for % decrease =/− SE TP2: time point 2

Molecule | % decrease =/− SE TP1 [%] | % decrease =/− SE TP2 [%]
GS1862: dsRNA trigger SEQ ID NO 149; gene target ATP-dependent RNA helicase dbp10 (nucleic acid) CTGCCTGGAATTTGACAACGCATGTAGGATTTCATTAAGTTGAGTGCTAAATCCCATTTCGAAAAGTCGATCTGCTTCATCAAATACCACATACTTGACCGAGGAAAGGTCTAATGACATTTCAATCTTAAGGTGTAAGAAGCGACCTGGCGTTGCAATAATAATATCAGGGTTGGCTGCCATAAATCTGAATTGATCTTCAAGACTATCTCCCCCTACAAGAAGAACGCATTTGAGATCAGTGCTCCGAGAAAATTCCTTAACGACTTTCAAAGTCTGCAAGGCAAGCTCTCGAGATGGGGATAGAATCAGAGCTCTAGCACCAACTCGAGCACTATGCGCCTTCAACATTTGAATCATCGGAATAACAAAAGCCGCTGTCTTTCCTGAACCGGTTCTAGCCATTCCCACGACATCTTGATGATCAAGAATCAGAGGTATTGTTTTTCTCTGGATTGGAGTCGGAACATTGAAGCCTTTTCTTTTGATGGCTCTCAAAAGATGAGCATCCAAACCCATAGATTGAAAA | 26 ± 4 | 29 ± 5
GS1853: dsRNA trigger SEQ ID NO 204; gene target Uncharacterized WD repeat-containing protein C17D11.16 (nucleic acid) CGGACTTCTTGGTCAGGCGCAAAAGAAGTTGAAAATACCTTTCCAACTTCCAAATCTCTGGACACTATCATTGAGGGGCCCGATGGCTGAATATTCCACAGTTTTACGAGTTTATCAGAAGACCCTGTGGCCATAAACCCGGGAATGATAGGATTAATATCAAAAGCACAAACTGATTTGTCATGTGCTTGCAATAACCAAACTGGCTTACTAGAACTGGGAGTAGATGGTGCCATTCGTATATCGTGATAATGGACCATACCACCTTCTGTCGTTACGTAAAAGAAATTTGGGTTGTGTGCATCCCATTTGACAGCTTCTACATCACTTTCTACACCCCAAATCGGCACTTTGGATTCTGGTGCTCTCATGTCGGCCGCTACGACACTCCGATCATAACTTCCACTAAGTAAGACAGTGGAGTCAACAGGATGCCATTGTATTGAGCAAACTTTATCTGAATGATTACTATATGATTTAGCACATTTATTAGTATTAAGGTCCCATAGTTTGACAGTCTTGTCGGCGGAAGAAGAGGCAAGTAAATTTTGGTGTT | 14 ± 6 | 0 ± 5
GS1856: dsRNA trigger SEQ ID NO 214; gene target Zinc finger and SCAN domain-containing protein 20 (nucleic acid) GACCATTGTGGTCTTTCGACAAAATGATTTCAAACAGCCCTCGTGTGCACATTTGTATGGTCTTTTTCCTGTATGAATACGACGATGACGAGCCAGACTAGATGAATCAGAGAATCGTTTCCCACAACCAAGATGCTGGCATTGATGTGGCTTTTCGCCAGTGTGTGTTCGAATGTGCACAGTTAAGGCACTTCTTTGAATGAAACTTTTTCCACATCCAGGCTGCATGCATGAATATGGCCGTTCGTTGGTATGTATTCGATAGTGGCGTTGAAGGTCAGACTTCCTGTTGAAACTCTTGTGACATGTCTGCCAATCACACTGAAATGGTCTCGCATTAGGTTCGTTTTCAACGAGCTCCATTACATCCATAGTGAACCGACAAGTAGTGTCGAATGTATGCAATGTCGGAGAAGTTAAGGGTTGGACAAGAGGTACCGCAGCAAAAGCTGCAGGTGTGGTGATTAGGTGGGGATGGGTGTCGAATATATAAGATTGCGATTCTCTATTTAAAGAAAAAAGAAATATAAGCAAAATAAAATATTTCTTTTGA | 1 ± 7 | 6 ± 8
GS1857: dsRNA trigger SEQ ID NO 129; gene target Transcriptional adapter 2 (nucleic acid) CTTGCTTGAAATTCTTCTCGTGGAATTTCTTCAAGAAGCTGAGTATCCTTGAGACTAGCTCTAACAGGTAGGGGAAACTTTGGACTATCCAGATAAACTTTCTGATAATGCGCCTTAACTTCGTCCTTGTCTCGATAACCTCCAATATGGTCTGCTATATCTGCCCATGATCCAAAGCCATATATTTCGGCTCCCTCCAAAAGAAGTAATTCTTCATCAGCACCCCAGTTTCTGTCATATATGGGAACTGAATTTTGCTCTATTACTCGGTATGGATGGGTTCCTGGGTTGTGGTTGTGTGAAGCTTCGCCATTTGAGAAGCATAGCACACAAAGATCATAATCATGACAGTGAGGGTCAGCACACCTAATTCGAACTGTCGAGGTAATGTCTGCTGAGCATACATCGCATACATACTTAACACCTCCCTCGGCACCTCGGGTCGCAGTCTTCTTCCTGATTTGGCCCATTGCTAAAACTCATGGTCAGTACTAGCAACAGAGCTCCCCTTGGTAGCACGAAGTTAAAACTGCAAATCCTTAAAATTTT | 28 ± 5 | 14 ± 7
GS1855: dsRNA trigger SEQ ID NO 212; gene target Golgi apyrase (nucleic acid) TAACACCCGCAGTTGCCATCAGAAAGAAGGGAGTATCTTTAACTTGATTCTCAGGTACAATACTCAATGCATGATCTAGTAAGCTTTGAAGATGTTCAGGACCAATATCTGTTATGCGATCGGCAAAGGAAGAGACGCCGGGTTTGATTTTTTTTGAATATCCAGGTTTAGTGTGTAACTGAGGTAGTTGGTTCAATTGAATCTCATTTTTTGCATCGTAACGAGCTCGAGATGTATTGAGCCACCGGTAGACGTGGACTCGAGTCCCTGACGAGCCCGCGTCTAAGATAACCCCCCATCGCCATTTACCCATAAGTAGCCTATCGTTACGGTTTGGCGATGCCGGTCTAGGATATGTGCTTCAATATCAAAAATAATCCGTGAAGCGTTACAAAAACATGAGTCAATTATACGGAATTTGAAACGAGTGTGAAAGGAAGTCGGCAGACTCAAAAATAAAAAAGAAAGATAATAATTCGAATTTGAATGAGAATGAGTAGTGGTCGGATAAGATGTTTAATGCTAAGTGCTAAGATAACTGACTAAGACTTGAT | 26 ± 4 | 10 ± 6
GS1859: dsRNA trigger SEQ ID NO 207; gene target Citrate/oxoglutarate carrier protein (nucleic acid) AGGATCTTCTTTTGCTCTGCATTTCAACTCGAATAACCTCAATTGGTTGATTCCACGCACTCAACCCTCCCCCAAGGGCACTAGCGAGAATTCGTTCCCAAGCACTTAATGGACCGCCATTTTCTTTTCCTGAAACCTTTCGGATTCCCTGTTCTGCCAAACGACTTAATCCAAATCTGGATCCCCAATTCGTCATTTGTCGAATGGCAACAGCATTCACACCTTTATTAATACCTCTGATCCCATCTTTACGGTATATATCCATAAATGTTGAGAAAGTTCCTGGGGGCTTTACACCAGTGGATGCTAATTTGGATTTCGTAATCTCCACAGTTTTCATGCATGTACAAAAGCCCATAGTGGCATATGCTTGAGCCATACCCCCGACAACGCCTCCTGTGATGCCGGCTGTGAAGATGCCGGCTCCAAAACTTCGAGCATAGAATTCTGCTTCTGAAGCGACAAATAGAAGAACTGCACCTTTTGATGAAGCTTCAATCCAAGCCCATGGGATCAAGCCCTGATAAAAACCCAAAACA | 32 ± 5 | 26 ± 7
GS1863: dsRNA trigger SEQ ID NO 167; gene target Chromatin remodeling factor mit1 (nucleic acid) TTGAGCCAAAATAAGAAACGACACGTAGCTTTGGAGCCCATTTTTTAATTTCTCGACGCCAATTAAGGCAAGTCGAATTAGGAGCTACAACTAAAAAGGGCCAACATTTCGAGTGATTTTTGACAATTGCTACGATAAAGGCAATAATTTGTATTGTCTTTCCTAAGCCCATCTCATCTGCTAGAATAACATTTTTCTTTTGATGGAAGTTATAAAGTAGCCAATTTAGACCTTCCATTTGATATTGCATCATCTTTCCTCCTGTGAGTTGTAGAGGTTGCTCTTTCATCTCAACTCTTCTTGAAAAATTTAATTTTCGGAACATCTGTAAGCGATGGTCCATAGCTGAAGTTGAGGATTGCCTAAAGTATTTTCCATCAATAAATTCATTATAGGCGGTAATAAAGCTTTGATATCTTTCGATATTCTCAATTTTTGGGGGCTCCATCCATACTGCTTCATCATAAGCAAGACCTTTGAATTTTACAAAGACTTCAGTGATCATATTAGCAGCAGCCTTGTCTATCTT | 6 ± 5 | 
GS1864: dsRNA trigger SEQ ID NO 197; gene target NEDD8-conjugating enzyme UBC12 (nucleic acid) TTCCAAAAAAAAAACTCATCAGGTTTTTAGAACACAATCAAACGTTTGGCCCTTAATAGTACCGCCAGCCATACTATTTCTAACATTTCTCTTGAATATCTCACGATGATTCCGAAGATCTTCGGCGGCTTCTTTATTCAACGGATCCGAAGAATTTGGCTCTAAAAAGAGAAAAATAATTAAAGAATTCCAGTAGCGAACTAGACCAGAGTAGAGCAGGAAGGAGTATTCGATGATACCTAAAAAAAGACACACACGTTATAAAATGGCTCTAAGAATGGTATTGAGGCTAATGTATATTTTTTTCTTTGAAAAAACAAAAAACAAACAAACAAAAAAATTATGGATAATAAGTAATCCTACCACTACACTCTGTAGATTTAGGACCGGTTTCCAGTCCTCACGCAAGATATTGAGACACACGTTTCCATCAAGATCGATATTTGGATGATAAATCTTTTCTATACATTTTACTTTTGGCGCTTCATGAGGGAAGTTTTGAGAGATAGAAAAAGTGAATTGAAAAC | 5 ± 6 | 3 ± 9
GS1852: dsRNA trigger SEQ ID NO 202; gene target PA-phosphatase related-family protein DDB_G0275547 (nucleic acid) TTCTCTTAGGGACGGTTGGCATCATTATTAATTTTGCAGAACCAATTCCATCTCGATCTTTTCCGATTTATTCTCAAAATGGAGATATTGTTTATCCTCAATTTGCATATCCTCTTCGCAAGAATATCATTCCAATTTGGGTAGCAATTTTGTTGGCTTCACTTATTCCTTTGCTCATCATTTTCCTTACACAATTTCGTATTCGCTCGTTTTGGGATGCAAACAACGCGATTACAGGGCTATTATACTCCCTTATTATCGCCGGAGTGTTTCAAGTCTTCTTAAAGTGGTTAATTGGAGGGCTGAGACCTCATTTTCTAACCGTCTGTGAGCCAATAATTCCAACACGTGCTCCAATAAAGGCTAGATATGGGCCTAGAATAATAATGTACGACAGAAATGTCTGCACTGGCGACAAAAGGCAGATCAATAATTCTCTTGAATCATTCCCTTCAAGCCAATCGACTGTAGCATTTTCTGGTTTCGTTTATTTGGCTATATACCTGAATGCAAAACTTAAAATTTGGTCTAATTACCATTCTGCCATGTGGAAGAT | 22 ± 4 | 
